Test results from article PMC4370744, “Expression and purification of functional human glycogen synthase-1:glycogenin-1 complex in insect cells” (Protein Expression and Purification, 2015).

Target: T1, human glycogenin-1 (GN1), GST removed by PreScission protease (human, UniProt P46976 1-350, glycosylated (degree of glycosylation modest))
T1 construct: human glycogenin-1 (GN1), NM 004130; released from GST at the PreScission site; the introduction speaks of a complete full-length complex; Same construct as m2 after cleavage; source: Sf9, co-expressed with GYS1; purified with GYS1 (glutathione Sepharose, eluted by GST-tagged PreScission protease, Superdex 200)
T1 sequence (looked up): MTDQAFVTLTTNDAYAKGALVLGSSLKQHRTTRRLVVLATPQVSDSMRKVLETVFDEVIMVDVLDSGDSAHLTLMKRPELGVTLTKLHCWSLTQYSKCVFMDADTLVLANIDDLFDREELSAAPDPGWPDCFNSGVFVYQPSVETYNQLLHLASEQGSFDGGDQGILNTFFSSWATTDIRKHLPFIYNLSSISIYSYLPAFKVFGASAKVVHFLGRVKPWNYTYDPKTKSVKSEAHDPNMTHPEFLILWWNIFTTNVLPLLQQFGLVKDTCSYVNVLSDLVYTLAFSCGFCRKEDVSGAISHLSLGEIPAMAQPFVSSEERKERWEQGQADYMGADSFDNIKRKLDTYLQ
Experiment: SEC; analytical: purified GYS1:GN1 (5 ug) on Superdex 200 3.2/300, 20 mM TES pH 7.4, 150 mM KCl, 1 mM DTT; apparent MW against protein standards
Conditions: both partners purified

B1: human muscle glycogen synthase (GYS1) (enzyme, UniProt P13807 1-737, looked up)
chain: MPLNRTLSMSSLPGLEDWEDEFDLENAVLFEVAWEVANKVGGIYTVLQTKAKVTGDEWGDNYFLVGPYTEQGVRTQVELLEAPTPALKRTLDSMNSKGCKVYFGRWLIEGGPLVVLLDVGASAWALERWKGELWDTCNIGVPWYDREANDAVLFGFLTTWFLGEFLAQSEEKPHVVAHFHEWLAGVGLCLCRARRLPVATIFTTHATLLGRYLCAGAVDFYNNLENFNVDKEAGERQIYHRYCMERAAAHCAHVFTTVSQITAIEAQHLLKRKPDIVTPNGLNVKKFSAMHEFQNLHAQSKARIQEFVRGHFYGHLDFNLDKTLYFFIAGRYEFSNKGADVFLEALARLNYLLRVNGSEQTVVAFFIMPARTNNFNVETLKGQAVRKQLWDTANTVKEKFGRKLYESLLVGSLPDMNKMLDKEDFTMMKRAIFATQRQSFPPVCTHNMLDDSSDPILTTIRRIGLFNSSADRVKVIFHPEFLSSTSPLLPVDYEEFVRGCHLGVFPSYYEPWGYTPAECTVMGIPSISTNLSGFGCFMEEHIADPSAYGIYILDRRFRSLDDSCSQLTSFLYSFCQQSRRQRIIQRNRTERLSDLLDWKYLGRYYMSARHMALSKAFPEHFTYEPNEADAAQGYRYPRPASVPPSPSLSRHSSPHQSEDEEDPRNGPLEEDGERYDEDEEAAKDRRNIRAPEWPRRASCTSSTSGSKRNSVDTATSSSLSTPSEPLSPTSSLGEERN
modifications: heavily phosphorylated: phospho-T54, T372, S412, S486, S641, S645, S647, S652, S653, S657, S710, S727 (LC-MS), S8/S11 (immunoblot); about 6 mol phosphate per mol total protein (GYS1 + GN1)
notes: human muscle glycogen synthase GYS1, NM 002103, UniProt P13807; no tag; the introduction speaks of a complete full-length complex; tryptic peptides up to residue 737 were found; the methods say only 'genes coding for human GYS1'; also called glycogen synthase-1; GYSb (native, phosphorylated form); source: Sf9, co-expressed with GST-tagged GN1 from a bicistronic pFastBac-Dual baculovirus; in …
  stoichiometry N: ~1 GYS1 per GN1 (printed as 4:4)
